The supplement of paper PMC10724198
± gives the standard deviation of the averaged measurements.

Tested on: Saccharomyces cerevisiae
Test: protein stability index of tFT-peptide fusion (C-terminal peptide) (PSI (0-1 scale)); higher = more stable (slower turnover)
Details: genetic background: wild type; temperature: 30 C
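Also: PSI is a weighted mean of sequencing reads over stability bins, variants kept only with over 10 reads, mCherry proximal and sfGFP distal, peptide attached via GGGS linker.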

Sequence	protein stability index
GLDEAYVSRNIN	0.647 ± 0.011
AHSSPMGYLPPF	0.693 ± 0.11
STQGAFHFLVSL	0.679 ± 0.015
WICFDFLLPVAL	0.549 ± 0.025
IWLSCCPLAFWS	0.6896 ± 0.0065
RVVGLWGSACMG	0.603 ± 0.01
PHRSRPPPTPPV	0.625 ± 0.061
SFCSSVFWFFWL	0.584 ± 0.037
DGCRLGDFLNRV	0.66 ± 0.042
RSMLVSRQSIGV	0.695 ± 0.019
FLPRGPLPPSPF	0.595 ± 0.026
GVSPSCILPLIL	0.653 ± 0.011
PPPLPPPTPLSP	0.5736 ± 0.0043
SITYDRLLPHSS	0.6594 ± 0.0063
PPRLAPPDPSLL	0.673 ± 0.022
RSPTGSPGRSFS	0.687 ± 0.025
PPPHPSPSRRSS	0.681 ± 0.029
VFGRHSNRSPLY	0.808 ± 0.07
KKICPDFGLLLV	0.591 ± 0.004
RSSPPHLPPPSL	0.68 ± 0.026
VLTWGLLGRSAF	0.729 ± 0.063
FVRAVLRLSSVF	0.645 ± 0.052
HKRCCIPTNDSQ	0.6991 ± 0.0063
LASSLTALRYPP	0.742 ± 0.064
VCGALRWCGGPD	0.705 ± 0.018
FPRVTGTKPPPA	0.7201 ± 0.0023

Sequence	protein stability index
QVGGVRSRGAAG	0.664 ± 0.017
WVNGFCKKGSGH	0.713 ± 0.015
PSPSPPPLRSPL	0.623 ± 0.016
GGGRGRAGENTR	0.681 ± 0.049
PPSPAPLHPSTS	0.661 ± 0.047
KTKTKKKERNRK	0.622 ± 0.088
SPRLPPPRPLPS	0.676 ± 0.057
PSSVPSTPTPPP	0.657 ± 0.076
FSIFFFSFFSCF	0.563 ± 0.039
CLLPGSSYSFTS	0.712 ± 0.045
LNLRTFATFFRY	0.635 ± 0.077
SRDRRASPPLPP	0.722 ± 0.049
SRESTPDSHTMS	0.726 ± 0.065
KRRKKKKQSGGK	0.645 ± 0.023
AVLGGLIYECVV	0.634 ± 0.018
RRRRAVGPREAP	0.717 ± 0.17
KTLYIAKTKSRA	0.644 ± 0.038
PMPPPHLLPSSS	0.723 ± 0.024
VGIGLTLSLRFS	0.598 ± 0.0066
RLLGLWGEVMGF	0.731 ± 0.021
DEKKMEKQTNRT	0.638 ± 0.045
VSWVWMGRLGYC	0.657 ± 0.02
GRGGGSRIVGGV	0.704 ± 0.023
PSHPPLLLPLLL	0.714 ± 0.022
PGFVGPWAGGGA	0.735 ± 0.12
PMLSDVPTHSIS	0.719 ± 0.039

Sequence	protein stability index
PPGVTPLSLCAC	0.534 ± 0.0088
EQSWAIQKVRQG	0.737 ± 0.025
SLEWVGGRRWPI	0.731 ± 0.014
QQISQIFHKQGK	0.851 ± 0.13
MSWLGLGLWSVF	0.808 ± 0.069
PLPPPPPLPFHL	0.79 ± 0.095
PPLPPLPSPLPL	0.674 ± 0.014
RWIPRMSFSESQ	0.666 ± 0.0097
AVVWMGAGVGGV	0.718 ± 0.03
PVLPRPNTQSRS	0.694 ± 0.027
LCRPNELPDGLP	0.664 ± 0.039
SHPLLPPHLPPP	0.682 ± 0.082
WHSGVICQTVLM	0.651 ± 0.014
LLLLSTCSPLLL	0.618 ± 0.021
PPPPPLLPPSLR	0.671 ± 0.073
GGGGPVWREPGT	0.761 ± 0.01
PLWCLPSLPPPF	0.797 ± 0.031
DRRRGMVRKTHV	0.659 ± 0.019
FVKRFSNGGVKT	0.775 ± 0.027
TFLYLSGRVVGL	0.651 ± 0.013
PPPSPPLPPPLL	0.696 ± 0.05
LEQNCYYGEFSS	0.665 ± 0.035
LYTTLCLRSPPH	0.671 ± 0.026
FLNRDGFETLFC	0.686 ± 0.022
IGFCVRGYGTTG	0.727 ± 0.1
GCWGRVLCGGSV	0.695 ± 0.026

Sequence	protein stability index
CVCVCHPPRRFL	0.719 ± 0.015
DWYLVGGRVFWV	0.721 ± 0.015
ICVTSFSVWGCC	0.592 ± 0.028
SCSICLWVGHGC	0.656 ± 0.028
PPSASLAPFLSP	0.722 ± 0.12
RPPSLWRSSFTP	0.6822 ± 0.0026
SPPSFIVPSTSL	0.69 ± 0.054
PSLLLPPLPLYT	0.662 ± 0.031
VSGVREGCSEME	0.773 ± 0.11
LWRSRSCSGHSF	0.651 ± 0.053
ERNKKKNNQVNK	0.619 ± 0.054
SPPHLPPPLLST	0.645 ± 0.06
VSVGVCGYKVWG	0.709 ± 0.1
AVGWQRQTEQRR	0.684 ± 0.088
VFGLSPLLQPSD	0.654 ± 0.0086
EVFGNVREAHCV	0.707 ± 0.019
PRFPPLPAHRVR	0.633 ± 0.047
SVCEWSRVGIRL	0.6476 ± 0.0056
RGVTEYDSGSSL	0.647 ± 0.045
NGSPFFFNRLFT	0.702 ± 0.033
HGPFLSNLLPDK	0.799 ± 0.085
DEWAGKYLKTIA	0.702 ± 0.013
PSTAPHLSPPPP	0.731 ± 0.022
LPPPLPPLLPLP	0.675 ± 0.014
HIHHVPGPHITA	0.706 ± 0.0088
PLLAQSALFVIA	0.5904 ± 0.0055

Sequence	protein stability index
PTTTLYNPSPPN	0.742 ± 0.043
FFVGAGGTEGLG	0.705 ± 0.0088
SPFLINTIFDIT	0.606 ± 0.038
VRCGGRGRAGKG	0.634 ± 0.03
HRRCPILFKMAT	0.674 ± 0.12
STLAPRVYLRLR	0.676 ± 0.032
LDVCDGVSGVRS	0.647 ± 0.035
HCLLLSLVFFFW	0.727 ± 0.03
ESRWRSPCFIIW	0.626 ± 0.11
PPLPPLRPIRSP	0.702 ± 0.035
VFLSITHFESRV	0.723 ± 0.055
PPPLPPPLILTP	0.643 ± 0.054
VGGRVGERRGAP	0.656 ± 0.044
EARRHTKHPGKI	0.753 ± 0.066
PPLEHPGIAGGR	0.644 ± 0.1
GFMRGVREKSSR	0.701 ± 0.0073
IGGGWIGRYVSR	0.684 ± 0.033
FAGGPSIAAHVL	0.712 ± 0.2
AWLPVLPLVSFF	0.621 ± 0.062
KIKQKEITEKNR	0.638 ± 0.038
QGGGDREVRVSE	0.653 ± 0.058
ASPAWYARGISR	0.733 ± 0.033
SPPLSRSPPPTL	0.674 ± 0.039
SPKCIVASFVVS	0.675 ± 0.028
LLQRFTTVPTLL	0.616 ± 0.083
KRKENKKNKEKK	0.669 ± 0.042

Sequence	protein stability index
FFPSPHVPPPPP	0.617 ± 0.018
VRGGVSWGMRGG	0.634 ± 0.089
LPCSTLPWAPLT	0.565 ± 0.023
SFPASSLPHSLL	0.716 ± 0.043
PPAEPLRLHAHA	0.709 ± 0.054
PALRTTRCLPLP	0.703 ± 0.019
RQEKITQHRARI	0.689 ± 0.024
AFDKDLLGMMFS	0.692 ± 0.024
PHLPSPRPRPPP	0.722 ± 0.012
ESSKVRNLELLK	0.669 ± 0.017
SRNAFTLAARVY	0.589 ± 0.016
SSSTPPVHVPIS	0.647 ± 0.083
GGFVVVGGVVGV	0.72 ± 0.013
SLPFFPPRSPPS	0.725 ± 0.11
ASSLLPIPPPPF	0.706 ± 0.012
VVKFLALIPLSP	0.583 ± 0.01
PPPRPPPPLSHS	0.632 ± 0.04
FLCLVASLFRFA	0.585 ± 0.043
GTGSRFRCLERS	0.739 ± 0.031
LPASPSIAPPPT	0.636 ± 0.06
PSALPPFQPGPL	0.747 ± 0.047
ALSVSLFKDGLF	0.672 ± 0.063
NGPYKAGSIVLI	0.664 ± 0.027
GPSGGSGGGGVG	0.597 ± 0.049
QPLTYHPLLRRP	0.715 ± 0.051
PRRPPPPRARFP	0.723 ± 0.026

Sequence	protein stability index
RVCYRAELSAMS	0.559 ± 0.045
KREARGERGKGE	0.644 ± 0.04
VVAGGERMRTGV	0.671 ± 0.022
VGRRTRGHDGVT	0.659 ± 0.078
WRNVEITSGSPH	0.672 ± 0.063
VAGDGYDVMDNG	0.553 ± 0.029
PLYSLVSPPYAT	0.651 ± 0.019
DLASPIFSRFSS	0.687 ± 0.036
PPSRDRATSPSE	0.656 ± 0.023
PLPPRPCCLPRP	0.644 ± 0.098
SVGLTGHGTRGV	0.571
PSVVPSLSPLFL	0.796 ± 0.062
VTHREFAGSALG	0.698 ± 0.022
PSLLPPATLLPI	0.718 ± 0.072
PPPPPPFPSSPP	0.698 ± 0.013
SPPLPPPVPTAP	0.7095 ± 0.0056
LPPHPPPCPPLL	0.733 ± 0.088
DKSIGIYIVRSH	0.731 ± 0.012
WVTLGMGGECMR	0.818 ± 0.14
APLPPPRPPPSP	0.657 ± 0.081
NGTGGGSSLAFG	0.644 ± 0.019
VKKHRQTNGMVY	0.739 ± 0.018
SLSLYSSTSLLP	0.694 ± 0.064
GRSAYRESGRRV	0.675 ± 0.04
FRTVRSMVGRRP	0.721 ± 0.077
RRPGSTTPPAYR	0.675 ± 0.048

Sequence	protein stability index
IAEVGRFHLVVS	0.542 ± 0.04
SILSRPERPLTN	0.658 ± 0.044
SKEVVVEGKRQS	0.715 ± 0.065
KKKKQKKNKKKK	0.6602 ± 0.0052
CWGAGPRLVRVW	0.4998 ± 0.00039
GAGAQRGCRSGG	0.6878 ± 0.0034
DSFDLPCLFKVP	0.659 ± 0.078
ACGAWAVVGLLG	0.679 ± 0.042
GRGVDGRSGCLL	0.6732 ± 0.0029
INKWNKRDGLFQ	0.66 ± 0.03
MWVGLWSVGLCG	0.717 ± 0.011
LVSQLLALCLSV	0.5358 ± 0.00089
DSHDMSQDLFVN	0.767 ± 0.039
ISSKREITGSVA	0.694 ± 0.012
TRGKETESIDSR	0.685 ± 0.036
CVSRRRGGEIGG	0.655 ± 0.044
GWGVGGKVGQAG	0.6814 ± 0.0047
APAPTLPALPPL	0.745 ± 0.026
TPSPTRCPTPTR	0.6 ± 0.025
SLPSHPLPDPSR	0.67 ± 0.018
